We go through one substance from paper PMC12217528, “Structural basis of topoisomerase targeting by delafloxacin” (Nature Communications, 2025).

In this experiment the target is ParE30-ParC55 fusion protein (fused ParE-ParC cleavage core of S. pneumoniae topo IV) (Streptococcus pneumoniae). The experiment in a line: crystal structure; ParE30-ParC55 fusion protein (4.5 mg/ml) mixed with 18-mer V-site or E-site duplex DNA at 1:1.2 molar ratio, 2 mM delafloxacin, 10 mM MgCl2; sitting-drop vapour diffusion, 50 mM sodium cacodylate, 62.5 mM KCl, 7.5 mM MgCl2, 2.5% Tacsimate, 5.5–7% isopropanol, pH 6.5, 301 K; V18 with PEGylated graphene nucleant 2.0 Å, V18 and E18 without 2.4 Å.

Broadly, the stoichiometry N is the number of molecules, sites or subunits per partner or assembly.

In the case of “ParE30-ParC55 fusion protein (fused ParE-ParC cleavage core of S. pneumoniae topo IV) (enzyme)”, the stoichiometry N amounted to 2.
